Assay results published in patent US6384189 (UAB RESEARCH FOUNDATION, dated 2002).

Molecular target: recombinant small latent TGF-β
Experiment: cell-based or functional assay

| Binder | Fold Activation of Latent TGF-β over Baseline (soft agar NRK colony formation) [fold over baseline] |
| --- | --- |
| KRFKQDGGWSHWSPWSS [KRFKQDGGWSHWSPWSS (SEQ ID NO:15)] | 2 |
| KRFKQDGG [KRFKQDGG (SEQ ID NO:9)] | 2.1 |
| KRFKQDGGWSHW [KRFKQDGGWSHW (SEQ ID NO:16)] | 1.9 |
| KRFKQDGGWSHWSP [KRFKQDGGWSHWSP (SEQ ID NO:14)] | 2.3 |
| KRFK [KRFK (SEQ ID NO:5)] | 2 |
| KRFKQDGGWWSP [KRFKQDGGWWSP (SEQ ID NO:17)] | 2.1 |

Molecular target: recombinant small latent TGF-β
Experiment: cell-based or functional assay
Remark: another data set of the same source

| Binder | Fold Activation of Latent TGF-β over Baseline (soft agar NRK colony formation) [fold over baseline] |
| --- | --- |
| QRFK [QRFK (SEQ ID NO:8)] | 2 |
| KKFK [KKFK (SEQ ID NO:32)] | 2.2 |
| KRFK [KRFK (SEQ ID NO:5)] | 2 |
| HRFK [HRFK (SEQ ID NO:6)] | 2 |
